{"source": "paper PMC5459902", "about": "(Scientific Reports, 2017)", "molecules": {"B1": {"name": "PnFPOX (Parastagonospora nodorum SN15) (protein)", "chain": "MAPSRANTSVIVVGGGGTIGSSTALHLVRSGYTPSNVTVLDAYPIPSSQSAGNDLNKIMGVSLRNPVDLQLALEARQMWNEDELFKKFFHNTGRLDCAHGEKDIADLKSGYQALVDAGLDATNEWLDSEDEILKRMPLLSRDQIKGWKAIFSKDGGWLAAAKAINAVGEYLRDQGVRFGFYGAGSFKAPLLAEGVCIGVETVDGTRYYADKVVLAAGAWSPTLVELHEQCVSKAWVYGHIQLTPEEAARYKNSPVVYNGDVGFFFEPNEHGVIKVCDEFPGFTRFKMHQPFGAKAPKRISVPRSHAKHPTDTIPDASDVSIRRAIATFMPQFKNKKMFNQAMCWCTDTADAALLICEHPEWKNFVLATGDSGHSFKLLPNIGKHVVELLEGTLADDLAHAWRWRPGSGDALKSRRSAPAKDLADMPGWNHDKPRANL", "notes": "His-tagged, pET22b (NdeI/XhoI), E. coli BL21(DE3); HisTrap purified; 49 kDa on SDS-PAGE"}}, "key": {"PnFPOX": {"molecular_target": "T1, PnFPOX (Parastagonospora nodorum, UniProt Q0UIL6)", "T1 construct": "gene SNOG_08398; His-tagged, pET22b (NdeI/XhoI), E. coli BL21(DE3); HisTrap purified; 49 kDa on SDS-PAGE", "T1 sequence (Q0UIL6 1-437)": "B1 chain", "test": "X-ray crystal structure, […] Å", "format": "binding", "conditions": "covalent; bond to Cys343"}, "[1]": {"tested_on": "CC(C)[C@H](NC[C@@]1(O)OC[C@@H](O)[C@@H](O)[C@@H]1O)C(=O)O", "test": "H2O2 formation, peroxidase-coupled 4-AA/TOOS spectrophotometric assay", "format": "biochemical, Parastagonospora nodorum", "conditions": "oxidase activity, O2 as electron acceptor, 10 mM potassium phosphate pH 7.0, 298 K, 25.0 °C", "excerpt": "(§1) H2O2 formation, peroxidase-coupled 4-AA/TOOS spectrophotometric assay on PnFPOX"}, "[2]": {"substrate": "CC(C)[C@H](NC[C@@]1(O)OC[C@@H](O)[C@@H](O)[C@@H]1O)C(=O)O", "test": "H2O2 formation, peroxidase-coupled 4-AA/TOOS spectrophotometric assay", "format": "biochemical, Parastagonospora nodorum", "conditions": "oxidase activity, O2 as electron acceptor, 10 mM potassium phosphate pH 7.0, 298 K, 25.0 °C", "remark": "listed apart in the source", "excerpt": "as §1"}}}
{"molecule": "Cc1cc2nc3c(=O)[nH]c(=O)nc-3n(C[C@H](O)[C@H](O)[C@H](O)COP(=O)(O)OP(=O)(O)OC[C@H]3O[C@@H](n4cnc5c(N)ncnc54)[C@H](O)[C@@H]3O)c2cc1C", "note": "[FAD]", "values": [{"measurement": "X-ray crystal structure, 1.83 Å", "setting": "PnFPOX", "value": "A covalent bond is formed between FAD and Cys343 of PnFPOX"}]}
{"molecule": "PnFPOX (Parastagonospora nodorum SN15; D54A/N56A)", "values": [{"measurement": "Km", "setting": "[1]", "value": "14 ± 1.2", "unit": "µM"}, {"measurement": "Vmax", "setting": "[1]", "value": 0.078, "unit": "µmol/min/mg"}, {"measurement": "Vmax/Km", "setting": "[1]", "value": 5730, "unit": "µL/min/mg"}]}
{"molecule": "PnFPOX (Parastagonospora nodorum SN15; D54N/N56A)", "values": [{"measurement": "Km", "setting": "[1]", "value": "46 ± 3.7", "unit": "µM"}]}
{"molecule": "B1", "values": [{"measurement": "Km", "setting": "[2]", "value": "359 ± 6.2", "unit": "µM"}, {"measurement": "Vmax", "setting": "[2]", "value": 29.9, "unit": "µmol/min/mg"}, {"measurement": "Vmax/Km", "setting": "[2]", "value": 83300, "unit": "µL/min/mg"}]}
